Assay: SEC; SE-HPLC, TSK-gel SuperSW3000; 0.1 M phosphate, 0.1 M potassium sulfate pH 6.7; scFv at 0.1 mg/mL, 25 °C, 0.3 mL/min; monomer and dimer peaks told by molecular weight standards, percentages from peak areas

## L1, anti-VEGF scFv derived from bevacizumab with non-repetitive linker
  Monomer/dimer ratio (monomer %): 95.7%

From article PMC8971466
